# Assay results taken from the DeepSol protein solubility set.
# Experiment: soluble on expression in E. coli; label from the status in PepcDB or PDB records
row,Sequence,soluble on expression in E. coli
1,MGSDKIHHHHHHMNSNPFVSVVMSVYNGGEFLKDAINSILSQSYKNFEFIIINDGSSDNFSEILELYDDERIKVLNNQENKGLVYSLNRGLLESIGKYIVRMDADDISLPNRIEKQVEFMEREPEVGVCGSYIEIFGDTIKRKVQRFPSNVNVNEAFLLFSTCLAHPSVIIRKSIVDKYKLRYDDRYLHAEDYAIWCQAVKYTKISNIREVLLKYRILESSVTRQANKNFQSRFDVHKSIYKDIFRNKGIDYTEKELYLHFIISDNNRFRNQALTIRPSEINAHLTKILSHYRGASNYKYIAFLVNKRGLSLSRWYSESRGFYFIMYLFKFLYYKIQIKK,not soluble
2,MDNNIDFIVTWVNGGDPDWLKKKNKYLPVNESNENMNSESRYRDFDIFKFWFRAVEKFAPWVHKIYLITDNQVPDWLDTRNSKLTVIDHRDIMDADWLPTFNSNAIELNAYKIKNLSEKFVLFNDDTILNSYVDKVDFFDENYPKDIYVESPIMATKGSVDHIMVNNVEIINEFFEKKNFYKKNLTKVFNPKIGIKLLRTLALLPSSKFAGFWNSHLPISYNKTTFETVWSNCEGKLVATSKNKFRTAYDVSHWLMRYWQLASGNYHLQNNIGKVYDLSSQNIDEVVTQLQRSHSKIICLNDNDELDDYEGVKGKLVTTLNEKFSEKSKFELLEHHHHHH,soluble
3,DQVSSLSSKYAVRLYEIIISWRAAGKTPMFSTMELRERLGMMPDEYQKMELFKRKVLDFAVKQINDKTDISITYEQHKEGRKIVGFTFSILHKIGSKDIPLENQSELFAGMTDLEAGTIRVRAEAYIASLIAKGQNVTKAHRLNILKKAVEERWGFEDVAKDNGAKNPENKNAKVVLNEWEKISNGTRFKDKDGTIWVKDSGMLRTEGTNRWIADSQIAKLFPMLTVMVEEGI,not soluble
4,MSLLRIEPDLSHFKAGTYRFTPQMTVREMLKLLESGKEAQFPLRLVEGMRLSDYLKQLREAPYIKHTLSDDKYATVAQALELENPEWIEGWFWPDTWMYTANTTDVALLKRAHKKMVKAVDSAWEGRADGLPYKDKNQLVTMASIIEKETAVASERDQVASVFINRLRIGMRLQTDPTVIYGMGERYNGKLSRADLETPTAYNTYTITGLPPGAIATPGADSLKAAAHPAKTPYLYFVADGKGGHTFNTNLASHNKSVQDYLKVLKEKNAQEGHHHHHH,soluble
5,MNTETSTQSAPSDTYDTSIYYNSSPRVTANDITTLTSFAAPAPQVLDYANTQYDIYRNQPAYYLPSYAPTAPTTFYSDFANFNVTRSQDFASVPAVANSSDVKPIIIKQEKSTPNATELIIQSRVDSQHEDTTTSTAGGAGVGGPRRTKFVLSVDRRKAATMRERRRLRKVNEAFEVVKQRTCPNPNQRLPKVEILRSAIDYINNLERMLQQAGKMTKIMEQNQHLQMTQQINGAPPHDYVTSSHFASSSYNPENMFDDDDLTDSDDDRDHHKLGNAVDLRRRNSLDRLSRIVASIPNEEAMTDEQLLQPANDVIDGEKKLEML,not soluble
6,MNSAVGAELFMGDDGVSLRPGLGGTESVLESWRYIMGKLRVGRFLISSRVNGPGRRFVIWFQGCPIRCRGCLNPEFHDEDGGHLIETARLVDMIRDLRDEIEGVTFTGGEPLAQAMELVKLAGAVKSMGLTVVCFTGYEMDEILKGNIEGGLELLEFVDVLIDGPYIEEKSAPLLWRGSTNQDVYFLTERYAEFRDRVMACSEMEAELKVGADGVYMTGIFDVEFWEELRRRLGDGSLEHHHHHH,not soluble
7,MDIISLRKSPQYLEEAIAYFQRKWADENSRMVYDNCFRTCLESESPLPQWYLLINGEGEIIGCAGLATNDFNSRMDLYPWLVALFIEEQYRGHNYGNLLIKAVEEDTRRLGFGNLYLCTTHTGYYEHFNFVYIGDCYHPWGEHTRVYQKEI,soluble
8,MGSDKIHHHHHHMKIQEVKRILTRWQPSSFSLYREVFTQYGGSINMHPDIVDYFMKRYNWHFKFFHYKEDDKIKGAYFICNDQNIGILTRRTFPLSSDEILIPMAPDLRCFLPDRTNRLSALHQPQIRNAIWKLARKKQNCLVKETFSSKFEKTRRNEYQRFLKKGGSVKSVADCSSDELTHIFIELFRSRFGNTSSCYPADNLANFFSQLHHLLFGHILYIEGIPCAFDIVLKSESQMNIYFDVSNGAIKNECRPLSPGSILMWLNISRARHYCQERQKKLLFSIGILKPEWEYKRMWSTPYFTGKSIC,not soluble
9,GMRNELPPENAYRILESGPIVLVSTRGADGRANLMTMGFHMMMQHEPPLVGAIIGPWDYSHQALSETGECVLAVPTVDLAETVVDIGNCSGDALDKFGHFGLTPVPAQTVDAPLVRQCWANLECRVVDDGWARRYNLWVLEVQRIWIDTARKETRLIHHQGDGRFSVDGDTLDLGERMTKWRHLMG,soluble
